In US20140242095A1:

Target: human SIRPα V1 expressed on cells (NOR mouse macrophages or CHO cells) (human) (UniProt P78324)
Assay: cell-based binding assay (NOR mouse macrophages)
Parameters: unit not given beside the values
Details: Fc fusion

human SIRPα V1 expressed on cells (NOR mouse macrophages or CHO cells) (human), sequence (P78324 31-504): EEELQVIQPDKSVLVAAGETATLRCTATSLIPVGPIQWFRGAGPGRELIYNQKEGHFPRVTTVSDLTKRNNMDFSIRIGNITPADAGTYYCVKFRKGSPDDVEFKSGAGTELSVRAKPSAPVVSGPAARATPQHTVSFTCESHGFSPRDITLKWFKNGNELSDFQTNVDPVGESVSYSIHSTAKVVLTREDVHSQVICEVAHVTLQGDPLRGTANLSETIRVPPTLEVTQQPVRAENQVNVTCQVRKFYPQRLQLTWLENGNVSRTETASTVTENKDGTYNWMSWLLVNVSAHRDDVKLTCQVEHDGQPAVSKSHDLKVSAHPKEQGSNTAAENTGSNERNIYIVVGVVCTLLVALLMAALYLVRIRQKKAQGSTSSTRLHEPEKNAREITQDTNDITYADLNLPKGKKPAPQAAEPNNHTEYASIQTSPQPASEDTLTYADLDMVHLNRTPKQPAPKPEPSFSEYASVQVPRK
human CD47-Fc fusion protein, sequence (Q08722 19-141): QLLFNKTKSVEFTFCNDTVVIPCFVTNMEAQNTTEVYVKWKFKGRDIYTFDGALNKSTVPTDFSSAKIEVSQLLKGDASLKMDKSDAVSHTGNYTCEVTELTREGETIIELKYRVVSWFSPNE

- Kd: 8.7 ?
Substance: human CD47-Fc fusion protein (from UniProt Q08722 19-141)
